In US6858210B1, “Therapeutic and diagnostic domain 1 β2GPI polypeptides and methods of using same” (La Jolla Pharmaceutical Co., priority 1998, dated 2005):
Where “and” joins values, the source holds several entries; their conditions need not be identical. Equal values may be shown once. Read-outs that look alike come from different tables or passages of the source.

How the values were obtained:
[1] = system: affinity purified β2GPI-dependent antiphospholipid antibody; assay: Direct binding ELISA, nickel chelate-coated wells charged with recombinant β2GPI proteins (no cardiolipin); design: species or system human; settings: O.D. at 550 nm
Procedure, shortened: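 His-tagged recombinant β2GPI mutants captured on nickel chelate wells in serial dilution (2 h, room temperature), no anionic phospholipid; GST-6his as negative control. Affinity-purified patient antibodies (11 patients) or rabbit anti-β2GPI detected by alkaline phosphatase anti-IgG, OD 550 nm.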

[2] = system: affinity purified β2GPI-dependent antiphospholipid antibody; assay: Competitive inhibition ELISA: recombinant β2GPI proteins compete for antibody binding to coated full length recombinant β2GPI; design: species or system human; settings: for IC50: read-out: 50% (concentration to give 50% inhibition)
Procedure, shortened: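 Wells coated with full-length recombinant β2GPI (10 μg/ml, pH 9.5) and milk-blocked. Serially diluted recombinant β2GPI proteins were co-incubated with a fixed concentration of patient antibody for 1 h at 37 °C. Bound IgG detected with alkaline phosphatase anti-human IgG at OD550; percent inhibition is background-corrected against inhibitor-free wells.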

rabbit anti-β2GPI = assay: Direct binding ELISA, nickel chelate-coated wells, rabbit antibody; settings: O.D. at 550 nm
Protocol: Nickel Chelate-coated microwell plates (NCP 010 00 Xenopore Corp. 374 Midland Ave. Saddle Brook, N.J. USA) were coated with 50 μl of serial dilutions of the various recombinant β2GPI, in PBS, at room temperature for 2 hours. The plates were washed three times with PBS and blocked with 75 μl of a 1% gelatin (Sigma #G-2500) in PBS for one hour room temperature. […] The plates were washed three times with PBS, 50 μl of alkaline phosphatase conjugated anti-immunoglobulin (anti-human IgG, gamma chain specific, Zymed #62-8422) or anti-rabbit IgG (Zymed #62-6122) diluted appropriately in 1% gelatin was added and incubated at 37° C. for one hour. The plates were washed three times with PBS, 50 μl of alkaline phosphatase PPMP chromogenic substrate solution was added and incubated for 30 minutes at room temperature. The optical density, at 550 nm, was determined by reading the plates in a microplate autoreader (Bio-Teck Instruments, model EL311).
Seven to nine different recombinant β2GPI mutant proteins were examined to determine if they could support the direct binding of affinity purified β2GPI-dependent antiphospholipid antibody preparations in the absence of anionic phospholipid. All recombinant mutant β2GPI were assayed with affinity purified β2GPI-dependent antiphospholipid antibody preparations from 11 different patients. Each mutant recombinant β2GPI protein was tested, in a dose dependent fashion and GST-6his was included as a negative control. The recombinant mutant β2GPI proteins were bound to nickel coated microtiter plates via their 6-his tail. All recombinant mutant β2GPI proteins tested bound rabbit anti-β2GPI showing that they were assessable by antibody (FIG. 5).

B1: recombinant β2GPI domain 5 with GlyHis6 (----5) (protein)
chain: GRASCKLPVKKATVVYQGERVKIQEKFKNGMLHGDKVSFFCKNKEKKCSYTEDAQCIDGTIEVPKCFKEHSSLAFWKTDASDVKPCGHHHHHH
[1]; Ab 6203
  Maximum O.D.: 0.044
[1]; Ab 6501
  Maximum O.D.: 0.004
[1]; Ab 6626
  Maximum O.D.: 0.028
[1]; Ab 6632
  Maximum O.D.: 0.013
[1]; Ab 6641
  Maximum O.D.: 0.018
[1]; Ab 6644
  Maximum O.D.: 0.017
[1]; Ab 6652
  Maximum O.D.: 0.012
[1]; Ab 6701
  Maximum O.D.: 0.000
[1]; Ab 7008
  Maximum O.D.: 0.007
[1]; Ab 7015
  Maximum O.D.: 0.078
[1]; Ab 7101
  Maximum O.D.: 0.078
[2]; Ab 6203
  Max (maximum inhibition observed at concentrations tested): 5%
  IC50: > 47 µM
[2]; Ab 6501
  Max (maximum inhibition observed at concentrations tested): 10%
  IC50: > 47 µM
[2]; Ab 6509
  Max (maximum inhibition observed at concentrations tested): 10%
  IC50: > 47 µM
[2]; Ab 6626
  Max (maximum inhibition observed at concentrations tested): 10%
  IC50: > 47 µM
[2]; Ab 6632
  Max (maximum inhibition observed at concentrations tested): 10%
  IC50: > 47 µM
[2]; Ab 6641
  Max (maximum inhibition observed at concentrations tested): 10%
  IC50: > 47 µM
[2]; Ab 6644
  Max (maximum inhibition observed at concentrations tested): 10%
  IC50: > 47 µM
[2]; Ab 6652
  Max (maximum inhibition observed at concentrations tested): 15%
  IC50: > 47 µM
[2]; Ab 6701
  Max (maximum inhibition observed at concentrations tested): 10%
  IC50: > 47 µM
[2]; Ab 7008
  Max (maximum inhibition observed at concentrations tested): 20%
  IC50: > 47 µM
[2]; Ab 7015
  Max (maximum inhibition observed at concentrations tested): 10%
  IC50: > 47 µM
[2]; Ab 7101
  Max (maximum inhibition observed at concentrations tested): 5%
  IC50: > 47 µM
[2]; Ab 7104
  Max (maximum inhibition observed at concentrations tested): 0%
  IC50: > 47 µM
Rabbit anti-β2GPI
  Maximum O.D.: 1.663

B2: 1----: recombinant β2GPI protein with domain 1 only (SEQ ID NO:4 region), His6 tail (protein)
chain: GRTCPKPDDLPFSTVVPLKTFYEPGEEITYSCKPGYVSRGGMRKFICPLTGLWPINTLKCTPRVGHHHHHH
[1]; Ab 6203
  Maximum O.D.: 1.029
[1]; Ab 6501
  Maximum O.D.: 0.911
[1]; Ab 6626
  Maximum O.D.: 0.560
[1]; Ab 6632
  Maximum O.D.: 0.351
[1]; Ab 6641
  Maximum O.D.: 0.252
[1]; Ab 6644
  Maximum O.D.: 0.493
[1]; Ab 6652
  Maximum O.D.: 0.262
[1]; Ab 6701
  Maximum O.D.: 0.388
[1]; Ab 7008
  Maximum O.D.: 0.195
[1]; Ab 7015
  Maximum O.D.: 1.102
[1]; Ab 7101
  Maximum O.D.: 0.804
[2]; Ab 6203
  Max (maximum inhibition observed at concentrations tested): 60%
  IC50: > 10 µM
[2]; Ab 6203, listed as 1 - - - -
  Max (maximum inhibition observed at concentrations tested): 20%
[2]; Ab 6501
  Max (maximum inhibition observed at concentrations tested): 70%
[2]; Ab 6501, listed as 1 - - - -
  Max (maximum inhibition observed at concentrations tested): 30%
  IC50: > 10 µM
[2]; Ab 6626
  Max (maximum inhibition observed at concentrations tested): 85%
  IC50: 8 µM and > 10 µM
[2]; Ab 6626, listed as 1 - - - -
  Max (maximum inhibition observed at concentrations tested): 50%
  IC50: > 10 µM
[2]; Ab 6632
  Max (maximum inhibition observed at concentrations tested): 90%
  IC50: 8 µM
[2]; Ab 6632, listed as 1 - - - -
  Max (maximum inhibition observed at concentrations tested): 70%
  IC50: 3 µM
[2]; Ab 6641
  Max (maximum inhibition observed at concentrations tested): 98%
  IC50: > 10 µM
[2]; Ab 6644
  Max (maximum inhibition observed at concentrations tested): 90%
  IC50: 8 µM and > 10 µM
[2]; Ab 6644, listed as 1 - - - -
  Max (maximum inhibition observed at concentrations tested): 45%
  IC50: > 10 µM
[2]; Ab 6701
  Max (maximum inhibition observed at concentrations tested): 80%
  IC50: 4 µM
[2]; Ab 7008
  Max (maximum inhibition observed at concentrations tested): 70%
  IC50: > 10 µM
[2]; Ab 7008, listed as 1 - - - -
  Max (maximum inhibition observed at concentrations tested): 40%
[2]; Ab 7015
  Max (maximum inhibition observed at concentrations tested): 90%
  IC50: 8 µM and > 10 µM
[2]; Ab 7015, listed as 1 - - - -
  Max (maximum inhibition observed at concentrations tested): 30%
  IC50: > 10 µM
[2]; Ab 7101
  Max (maximum inhibition observed at concentrations tested): 70%
  IC50: 8 µM and > 10 µM
[2]; Ab 7101, listed as 1 - - - -
  Max (maximum inhibition observed at concentrations tested): 20%
  IC50: > 10 µM
[2]; Ab 7104
  Max (maximum inhibition observed at concentrations tested): 90%
  IC50: 0.8 µM
Rabbit anti-β2GPI
  Maximum O.D.: 1.9737

B3: 12345: recombinant full length human β2GPI (domains 1-5) with C-terminal GlyHis6, baculovirus expressed (protein)
chain: GRTCPKPDDLPFSTVVPLKTFYEPGEEITYSCKPGYVSRGGMRKFICPLTGLWPINTLKCTPRVCPFAGILENGAVRYTTFEYPNTISFSCNTGFYLNGADSAKCTEEGKWSPELPVCAPIICPPPSIPTFATLRVYKPSAGNNSLYRDTAVFECLPQHAMFGNDTITCTTHGNWTKLPECREVKCPFPSRPDNGFVNYPAKPTLYYKDKATFGCHDGYSLDGPEEIECTKLGNWSAMPSCKASCKLPVKKATVVYQGERVKIQEKFKNGMLHGDKVSFFCKNKEKKCSYTEDAQCIDGTIEVPKCFKEHSSLAFWKTDASDVKPCGHHHHHH
[1]; Ab 6203
  Maximum O.D.: 1.270
[1]; Ab 6501
  Maximum O.D.: 1.772
[1]; Ab 6626
  Maximum O.D.: 1.527
[1]; Ab 6632
  Maximum O.D.: 1.419
[1]; Ab 6641
  Maximum O.D.: 2.555
[1]; Ab 6644
  Maximum O.D.: 1.848
[1]; Ab 6652
  Maximum O.D.: 0.640
[1]; Ab 6701
  Maximum O.D.: 0.948
[1]; Ab 7008
  Maximum O.D.: 1.380
[1]; Ab 7015
  Maximum O.D.: 1.864
[1]; Ab 7101
  Maximum O.D.: 1.257
[2]; Ab 6203
  Max (maximum inhibition observed at concentrations tested): 75%
  IC50: 0.8 µM
[2]; Ab 6501
  Max (maximum inhibition observed at concentrations tested): 80%
  IC50: 0.2 µM
[2]; Ab 6509
  Max (maximum inhibition observed at concentrations tested): 70%
  IC50: 0.1 µM
[2]; Ab 6626
  Max (maximum inhibition observed at concentrations tested): 80%
  IC50: 0.3 µM
[2]; Ab 6632
  Max (maximum inhibition observed at concentrations tested): 90%
  IC50: 0.8 µM
[2]; Ab 6641
  Max (maximum inhibition observed at concentrations tested): 96%
  IC50: 0.1 µM
[2]; Ab 6644
  Max (maximum inhibition observed at concentrations tested): 90%
  IC50: 0.2 µM
[2]; Ab 6652
  Max (maximum inhibition observed at concentrations tested): 95%
  IC50: 0.8 µM
[2]; Ab 6701
  Max (maximum inhibition observed at concentrations tested): 100%
  IC50: 0.1 µM
[2]; Ab 7008
  Max (maximum inhibition observed at concentrations tested): 90%
  IC50: 0.2 µM
[2]; Ab 7015
  Max (maximum inhibition observed at concentrations tested): 90%
  IC50: 0.2 µM
[2]; Ab 7101
  Max (maximum inhibition observed at concentrations tested): 80%
  IC50: 0.8 µM
[2]; Ab 7104
  Max (maximum inhibition observed at concentrations tested): 90%
  IC50: 0.8 µM
Rabbit anti-β2GPI
  Maximum O.D.: 2.065
